These results are taken from the DeepSol protein solubility set.

The nature of this data set: soluble on expression in E. coli; label from the status in PepcDB or PDB records.
In the case of “GHMSRRYWQLDVFAERPLTGNGLAVFDDASALDDAAMQAWTRELRQFESIFLLPGDDPRAFRARIFTLEEELPFAGHPLLGAAALLHHLRGGDNEQHWTLHLASKSVALRSVRAGSGFYAEMDQGRAEFGATPDAGTCRWFAEAFSLSANDLSGHPPRVVSTGLPYLLLPVTAEALGRARQVNDLQEALDKLGAAFVYLLDVDGREGRTWDNLGLVEDVATGSAAGPVAAYLVEYGLAARGEPFVLHQGRFLERPSRLDVQVATDGSVRVGGHVQLLARAELLTSAGS”, the “soluble on expression in E. coli” value is given as “soluble”.

Regarding “MSLSRRPAYARLLDRAVRILAVRDHSEQELRRKLAAPIMGKNGPEEIDATAEDYERVIAWCHEHGYLDDSRFVARFIASRSRKGYGPARIRQELNQKGISREATEKAMRECDIDWCALARDQATRKYGEPLPTVFSEKVKIQRFLLYRGYLMEDIQDIWRNFADEGHHHHHH”, the “soluble on expression in E. coli” value was “soluble”.

With “MSYAKVSHWQMASTEQLIIPPNNDPRPDDQLVIVVVTADGIASPIPLNVSRREVIRQVEMLNRNLTAANRGDNYQGQASQLYDWFIKPIKLILENKKIENISFILDRGLRSLPMATMYDRQSGQYLIEDYSVGLMPSLSLTNRDYAPLTGAQILAMGAEEFANQNPLPAAAVEVDTITNQLWRGSAFLNDRFTVDNFVQSLATKEYRLVHLATHGEFLPGNRNNSFVVFSDRSLDLDEFANVGLDKPIDLMVLSACRTAVGDFDAELGFAGLAVKTGVKTAIGSLWYVSDEATFALMTSFYDRLQPAPIKAKALQQAQLSLLRGEIRVVDGNLVLGDGTNISLADLPADIRQRLATQDLSHPYFWSGFTLVGSPWLEHHHHHH”, the “soluble on expression in E. coli” value is “not soluble”.

In the case of “LRRGHLKLQRDGQIIGHTPEEWEQIFREVWPEYEIEPNPLPGYAPFDIGMWLTVEAPAYAVWIDPEDGSEYWAG”, the “soluble on expression in E. coli” value is recorded as “not soluble”.

Regarding “SFQGIRQPVTVTELVDSGILRPSTVNELESGQISYDEVGERIKDFLQGSSCIAGIYNETTKQKLGIYEAMKIGLVRPGTALELLEAQAATGFIVDPVSNLRLPVEEAYKRGLVGIEFKEKLLSAERAVTGYNDPETGNIISLFQAMNKELIEKGHGIRLLEAQIATGGIIDPKESHRLPVDIAYKRGYFNEELSEILSDPSDDTKGFFDPNTEENLTYLQLKERCIKDEETGLCLLPLKEKKKQVQTS”, the “soluble on expression in E. coli” value is on record as “soluble”.

On to “MGSDKIHHHHHHMNTSGDRLRILLRECHLTATDFAANRKITPQHVNNWFKRGVPMARIDEVAELLTVNARWLRSGDGPKHPNESANENTGDDKRMAIQQTRNVLRGDVEIQIYMEVESPHGVGKTVLSEAPGQKIRLPLQVLQTMGIDPKNCMCVAMVGNSMADKIQDGSILGVDRELTQVIDGEIYALEHGGILRVRYLYRLPNGGLRLRSHNDAEYPDEVFSGEDIAREKIRILGWIFWWSTLNSRRNAMLLL”, for which the “soluble on expression in E. coli” value was “not soluble”.

Turning to “MGRFAVYEDPFVTKLMNTIGSMTFDGLGFTLLELYRDLVISADNYFMNYVNYGETPHDVGEESIEDPIYGASYPYWWTDLGPTLVLMLYRDYVFTSNREILEKNYNKIKEIIDWLIRKDMDNDCIPDSKGGYDNSYDGTHMYGASSYIASMFLSALTAFIKMSEILDVKIDDKYYRFLECGKKTFNSLWNGKYFILWKKNDEENTSCLNSQLLGQFWCDILGLPPITDHDKINTALRSIYELNFKASKYCLTNAVREDGSVDSSTAQLRSCWPRVSFAVAAHMILRGMVKEGIEVAKREWETIKELNPFDQSSRIDAIDGKYVGLMSYIGSTSVWLLKLALDKIRLEHHHHHH”, the “soluble on expression in E. coli” value is recorded as “soluble”.

Regarding “MIFVLDVGNTNTVLGVYDGDELKHHWRIETSRSKTEDEYGMMIKALLNHVGLQFSDIRGIIISSVVPPIMFALERMCLKYFHIKPLIVGPGIKTGLDIKYDNPREVGADRIVNAVAGIHLYGSPLIIVDFGTATTYCYINEHKQYMGGAIAPGIMISTEALFARAAKLPRIEIARPDDIIGKNTVSAMQAGILYGYVGQVEGIVSRMKAKSKIPPKVIATGGLAPLIASESDIIDVVDPFLTLTGLKLLYEKNTEKKG”, the “soluble on expression in E. coli” value is “soluble”.

Consider “SLKYVDEFRNGDYAKTLVRLIQKLTKKKINIMEICGSHTMAIFRYGIKDILPSNIRLISGPGCPVCVTSQGYIDTALELSLSREVIIATFGDMIRVPGTKTSLMKRKAEGADIKIVYSPMDALTLAENNPLKKVVFLSVGFETTTPITAITILEAKKRGVKNIFFLTSNKMVPPVMRTLVEDKELNITGFLLPGNVSAIIGKKPYEFLSSEYNVSGVVTGFEPLDILKGLKVLIDIINNNASVIVNEYKRVVRDEGNVTALRYIKEVFEVTDSTWRGIGNIEKSGYKINTEYEQFDAVKQFNINYKECDSSSECRCGDILKGKITPIECSLFKKACTPDHPVGSCMVSYEGVCAAYYKFLNT”, for which the “soluble on expression in E. coli” value is on record as “soluble”.
